Results as given in patent publication US20040253247A1 (Genentech, published 2004).
Where no end group is shown, it is not given here.

Tests used:
Assay in all cases: phage ELISA
rat albumin = rat albumin (rat, UniProt P02770 25-608)
Method: (§1) Phage ELISA—Phage clones (˜10¹¹ phage) were added to plates coated with rat, rabbit or human albumin. The microtiter plate was washed with wash buffer and bound phage were detected with HRP/Anti-M13 Conjugate. The amount of HRP bound was measured using ABTS/H₂O₂ substrate and monitoring the change at 405 nm.

rabbit albumin = rabbit albumin (rabbit, UniProt P49065 25-608)
Chain of rabbit albumin (P49065 25-608 limits assumed): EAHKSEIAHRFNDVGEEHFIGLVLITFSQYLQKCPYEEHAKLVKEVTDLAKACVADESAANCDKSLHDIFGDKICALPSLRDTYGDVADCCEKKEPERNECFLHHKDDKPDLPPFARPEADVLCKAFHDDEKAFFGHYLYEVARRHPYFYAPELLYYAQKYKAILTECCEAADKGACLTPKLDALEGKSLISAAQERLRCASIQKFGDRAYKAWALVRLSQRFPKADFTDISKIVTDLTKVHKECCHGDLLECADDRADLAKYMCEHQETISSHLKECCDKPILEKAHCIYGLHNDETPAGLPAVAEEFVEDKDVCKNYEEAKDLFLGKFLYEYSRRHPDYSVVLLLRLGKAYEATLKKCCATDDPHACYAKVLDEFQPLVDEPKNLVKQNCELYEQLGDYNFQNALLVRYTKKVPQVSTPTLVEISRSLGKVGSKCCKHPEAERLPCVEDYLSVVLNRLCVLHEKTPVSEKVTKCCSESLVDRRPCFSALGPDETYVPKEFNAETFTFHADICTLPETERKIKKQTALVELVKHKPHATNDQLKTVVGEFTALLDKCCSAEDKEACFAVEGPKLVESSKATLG
Method: as §1

human albumin = human albumin (human, UniProt P02768 25-609)
Method: as §1

Chain of rat albumin (P02770 25-608 limits assumed): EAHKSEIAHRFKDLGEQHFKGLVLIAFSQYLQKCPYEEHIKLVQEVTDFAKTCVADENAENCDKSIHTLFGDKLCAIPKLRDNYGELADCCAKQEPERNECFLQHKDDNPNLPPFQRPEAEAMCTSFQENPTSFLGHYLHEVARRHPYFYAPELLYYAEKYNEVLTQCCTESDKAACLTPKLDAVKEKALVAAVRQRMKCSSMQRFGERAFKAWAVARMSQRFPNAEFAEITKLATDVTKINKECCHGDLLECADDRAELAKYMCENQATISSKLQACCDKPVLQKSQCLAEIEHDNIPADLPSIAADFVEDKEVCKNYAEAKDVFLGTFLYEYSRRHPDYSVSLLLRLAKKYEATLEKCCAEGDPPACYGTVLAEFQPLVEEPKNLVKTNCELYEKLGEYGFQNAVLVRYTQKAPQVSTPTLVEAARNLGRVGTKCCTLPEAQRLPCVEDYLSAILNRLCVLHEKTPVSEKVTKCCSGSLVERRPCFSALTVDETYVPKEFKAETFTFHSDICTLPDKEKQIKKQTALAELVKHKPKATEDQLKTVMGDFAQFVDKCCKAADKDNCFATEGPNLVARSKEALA

| Binder | binding result (rat albumin) | binding result (rabbit albumin) | binding result (human albumin) |
| --- | --- | --- | --- |
| ETCYFPGICWL (phage clone, Library HC) [HC-H12] | no binding | no binding | – |
| RWQTEDVCLPKWGCLFGDGV (phage clone, Library RB) [RB-B1] | – | – | no binding |
| GVRTFCQDWPAHNSCKLLRG (phage clone, Library HA) [HA-H73] | no binding | no binding | – |
| KLCYFPGICWS (phage clone, Library HC) [HC-H2] | no binding | no binding | – |
| LAEMCYFPGICWMSA (phage clone, Library HBC) [HBC-H7] | no binding | no binding | – |
| SREVCYYPGICWNGA (phage clone, Library HBC) [HBC-H2] | no binding | no binding | – |
| RAPERWVCYWEGICFDRYEQ (phage clone, Library HB) [HB-H1] | no binding | no binding | – |
| HAEICYFPGICWTER (phage clone, Library HBC) [HBC-H17] | no binding | no binding | – |
| QGDFWDICLPRWGCLSGEGY (phage clone, Library RB) [RB-B10] | – | – | no binding |
| VRDMCYFPGICWKSE (phage clone, Library HBC) [HBC-H19] | no binding | no binding | – |
| GTEVCYFPGICWGGG (phage clone, Library HBC) [HBC-H3] | no binding | no binding | – |
| REPASLVCYFEDICFVRAEA (phage clone, Library HB) [HB-H3] | no binding | no binding | – |
| RDTVCYFPGICWMAS (phage clone, Library HBC) [HBC-H18] | no binding | no binding | – |
| QRPIMDFCLPKWGCLWEDGF (phage clone, Library RB) [RB-R7] | – | – | no binding |
| IVEMCYYPGICWISP [HB-H10] | no binding | no binding | – |
| DMCYFPGICWL (phage clone, Library HC) [HC-H13] | no binding | no binding | – |
| KTEICYFPGICWMSG (phage clone, Library HBC) [HBC-H15] | no binding | no binding | – |
| DICYIPGICWM (phage clone, Library HC) [HC-H6] | no binding | no binding | – |
| GGEICYFPGICRVLP (phage clone, Library HBC) [HBC-H4] | no binding | no binding | – |
| QTELCYFPGICWNES (phage clone, Library HBC) [HBC-H13] | no binding | no binding | – |
| RGPDVCYWPSICFERSMP (not fully specified (bridges); cysteine pairing not given here, phage clone, Library HB) [HB-H6] | no binding | no binding | – |
| GMCYFPGICWA (phage clone, Library HC) [HC-H4] | no binding | no binding | – |
| ERQMVDFCLPKWGCLWGDGF (phage clone, Library RB) [RB-R11] | – | – | no binding |
| RMPASLPCYWETICYESSEQ (phage clone, Library HB) [HB-H16] | no binding | no binding | – |
| QTRSFCADWPRHESCKPLRG (phage clone, Library HA) [HA-H76] | no binding | no binding | – |
| LVPERIVCYFESICYERSEL (phage clone, Library HB) [HB-H4] | no binding | no binding | – |
| VQEVCYFPGICWMQE (phage clone, Library HBC) [HBC-H10] | no binding | no binding | – |

| Binder | binding result (rat albumin) | binding result (rabbit albumin) | binding result (human albumin) |
| --- | --- | --- | --- |
| TTEMCYFPGICWKTE (phage clone, Library HBC) [HBC-H14] | no binding | no binding | – |
| ELCYFPGICWM (phage clone, Library HC) [HC-H20] | no binding | no binding | – |
| KTCYFPGICWM (phage clone, Library HC) [HC-H10] | no binding | no binding | – |
| KVCYFPGICWM (not fully specified (bridges); cysteine pairing not given here, phage clone, Library HC) [HC-H5] | no binding | no binding | – |
| EVCYFPGICWF (phage clone, Library HC) [HC-H11] | no binding | no binding | – |
| ALCYFPGICWM (phage clone, Library HC) [HC-H14] | no binding | no binding | – |
| ELCYFPGICWP (phage clone, Library HC) [HC-H15] | no binding | no binding | – |
| EVCYFPGICWM (phage clone, Library HC) [HC-H19] | no binding | no binding | – |
| ELCYFPGICWT [HB-H13] | no binding | no binding | – |
| EMCYFPGICWT (phage clone, Library HC) [HC-H9] | no binding | no binding | – |
| DVCYFPGICWM (phage clone, Library HC) [HC-H8] | no binding | no binding | – |
| EMCYFPGICWS (phage clone, Library HC) [HC-H7] | no binding | no binding | – |
| DLCYFPGICWM (phage clone, Library HC) [HC-H3] | no binding | no binding | – |
| EICYFPGICWI [HB-H12] | no binding | no binding | – |
| EVCYFPGICWE (phage clone, Library HC) [HC-H16] | no binding | no binding | – |
| EICYFPGICWM (phage clone, Library HC) [HC-H17] | no binding | no binding | – |
| SYAPCYFPGICWMGN (phage clone, Library HBC) [HBC-H8] | no binding | no binding | – |
| SGAICYVPGICWTHA [HB-H7] | no binding | no binding | – |
| ASEICYFPGICWMVE (phage clone, Library HBC) [HBC-H12] | no binding | no binding | – |
| RTAESLVCYWPGICFAQSER (phage clone, Library HB) [HB-H18] | no binding | no binding | – |
| GRSFCMDWPAHKSCTPLML (phage clone, Library HA) [HA-H83] | no binding | no binding | – |
| EHDMCYFPGICWIAD (phage clone, Library HBC) [HBC-H6] | no binding | no binding | – |
| QRHMMDFCLPKWGCLWGDGY (phage clone, Library RB) [RB-R4] | – | – | no binding |
| DMCYFPGICFN (phage clone, Library HC) [HC-H18] | no binding | no binding | – |
| MEPSRSVCYAEGICFDRGEQ (phage clone, Library HB) [HB-H8] | no binding | no binding | – |
| NDEICYFPGVCWKSG (phage clone, Library HBC) [HBC-H11] | no binding | no binding | – |
